The text below walks through data of the Human Domainome abundance scans (Beltran et al. 2025).

Sequences and labels used below:
B1: Zinc finger protein ZIC 2, residues 250 to 295; numbered along this chain, O95409 (parent)
chain: QCIKQELICKWIDPEQLSNPKKSCNKTFSTMHELVTHVSVEHVGGP

± gives the uncertainty stated by the source.

In the series the parent is B1. Briefly: abundance fitness (aPCA) (normalised: wild type 0, dead -1); higher = more abundant; growth selection in yeast, the domain comes from the species named. The conditions noted are these: Homo sapiens.
As for QCIKQELICKWIDPEQLSNPKKSCNKTFSTMHELVTHVGVEHVGGP, the abundance fitness is -0.019 ± 0.086.

Turning to QCIKQELICKWIDPEQLSNPKKSCNKTFSTMHELVTHVDVEHVGGP, the abundance fitness came to 0.414 ± 0.1.

As for QCIKQELICKWIDPEQLSNPKKSCNKTFSTMHELVTHVAVEHVGGP, the abundance fitness was determined as 0.129 ± 0.088.

In the case of QCIKQELICKWIDPEHLSNPKKSCNKTFSTMHELVTHVSVEHVGGP, the abundance fitness is -0.077 ± 0.13.

For the variant QCIKQELICKWIDPEWLSNPKKSCNKTFSTMHELVTHVSVEHVGGP, the abundance fitness is -0.069 ± 0.097.

For QCIKQELICKWIDPECLSNPKKSCNKTFSTMHELVTHVSVEHVGGP, the abundance fitness was -0.014 ± 0.11.

Consider QCIKQELICKWIDPEQLSNPKKSCNKTFSTMHELVTHVSVEHYGGP, for which the abundance fitness was 0.485 ± 0.1.

For the variant QCIKQELICKWIDPEQLSNPKKSCNKTFSTMHELVTHVSVEHHGGP, the abundance fitness was determined as 0.012 ± 0.11.

QCIKQELICKWIDPEQLSNPKKSCNKTFSTMHELVTHVSVEHLGGP: the abundance fitness was -0.299 ± 0.09.

As to QCIKQELICKWIDPEQLSNPKKSCNKTFSTMHELVTAVSVEHVGGP, the abundance fitness was -0.683 ± 0.12.

Turning to QCIKQELICKWIDPEQLSNPKKSCNKTFSTMHELVTDVSVEHVGGP, the abundance fitness is -0.457 ± 0.13.

On to QCIKQELICKWIDPEQLSNPKKSCNKTFSTMHELVTYVSVEHVGGP, for which the abundance fitness is -0.951 ± 0.14.

Take QCIKQELICKWIDPEQLSNPKKSCNKTVSTMHELVTHVSVEHVGGP: the abundance fitness is -0.724 ± 0.1.

Turning to QCIKQELICKWIDPEQLSNPKKSCNKTCSTMHELVTHVSVEHVGGP, the abundance fitness is -0.725 ± 0.11.

For the variant QCIKQELICKWIDPEQLSNPKKSCNKTFSTMHELTTHVSVEHVGGP, the abundance fitness was 0.302 ± 0.095.

Consider QCIKQELIHKWIDPEQLSNPKKSCNKTFSTMHELVTHVSVEHVGGP, for which the abundance fitness was -1.03 ± 0.17.

On to QCIKQELIGKWIDPEQLSNPKKSCNKTFSTMHELVTHVSVEHVGGP, for which the abundance fitness is -0.714 ± 0.085.

As for QCIKQELIKKWIDPEQLSNPKKSCNKTFSTMHELVTHVSVEHVGGP, the abundance fitness is -0.473 ± 0.11.

QCIKQELIQKWIDPEQLSNPKKSCNKTFSTMHELVTHVSVEHVGGP: the abundance fitness was -0.675 ± 0.12.

Consider QCIKQELICKWIDPEQLSNPKKSCNKTFSTMHVLVTHVSVEHVGGP, for which the abundance fitness is -0.838 ± 0.092.

Turning to QCIKQELICKWIDPEQLSNPKKSCNKTFSTMHYLVTHVSVEHVGGP, the abundance fitness was -1.01 ± 0.13.

Regarding QCIKQELICKWIDPEQLSNPKKSCNKTFSTMHMLVTHVSVEHVGGP, the abundance fitness is -0.751 ± 0.11.

Turning to QCIKQELVCKWIDPEQLSNPKKSCNKTFSTMHELVTHVSVEHVGGP, the abundance fitness is 0.086 ± 0.087.

Consider QCIKQELICKFIDPEQLSNPKKSCNKTFSTMHELVTHVSVEHVGGP, for which the abundance fitness is 0.187 ± 0.1.

In the case of QCIKQELICKYIDPEQLSNPKKSCNKTFSTMHELVTHVSVEHVGGP, the abundance fitness came to 0.005 ± 0.11.

Take QCIKQELICKWIDPEQLSNPKESCNKTFSTMHELVTHVSVEHVGGP: the abundance fitness is -0.285 ± 0.11.

As to QCIKQELICKWIDPEQLSNPKMSCNKTFSTMHELVTHVSVEHVGGP, the abundance fitness was -0.126 ± 0.1.

Consider QCIKQELICKWIDPEQLSNPKYSCNKTFSTMHELVTHVSVEHVGGP, for which the abundance fitness was -0.376 ± 0.15.

Take QCIKQELICKWIDPEQLSNPKRSCNKTFSTMHELVTHVSVEHVGGP: the abundance fitness was determined as 0.124 ± 0.086.

For QCIKQELICKWIDPEQLSNPKASCNKTFSTMHELVTHVSVEHVGGP, the abundance fitness is -0.175 ± 0.092.

Take QCIKQELICKWIDPEQLSNPKKKCNKTFSTMHELVTHVSVEHVGGP: the abundance fitness was 0.309 ± 0.11.

Turning to QCIKQELICKWIDPEQLSNPKKHCNKTFSTMHELVTHVSVEHVGGP, the abundance fitness was 0.156 ± 0.12.

Take QCIDQELICKWIDPEQLSNPKKSCNKTFSTMHELVTHVSVEHVGGP: the abundance fitness amounted to 0.261 ± 0.12.

In the case of QCIWQELICKWIDPEQLSNPKKSCNKTFSTMHELVTHVSVEHVGGP, the abundance fitness was -1.05 ± 0.14.

Regarding QCKKQELICKWIDPEQLSNPKKSCNKTFSTMHELVTHVSVEHVGGP, the abundance fitness is -0.652 ± 0.12.

As for QCVKQELICKWIDPEQLSNPKKSCNKTFSTMHELVTHVSVEHVGGP, the abundance fitness was -0.248 ± 0.089.

Turning to QCQKQELICKWIDPEQLSNPKKSCNKTFSTMHELVTHVSVEHVGGP, the abundance fitness was 0.224 ± 0.1.

For the variant QCCKQELICKWIDPEQLSNPKKSCNKTFSTMHELVTHVSVEHVGGP, the abundance fitness is -0.673 ± 0.11.

For the variant QCRKQELICKWIDPEQLSNPKKSCNKTFSTMHELVTHVSVEHVGGP, the abundance fitness is -0.61 ± 0.09.

On to QCIKQELICKWIDPEQLPNPKKSCNKTFSTMHELVTHVSVEHVGGP, for which the abundance fitness was -0.171 ± 0.11.

For the variant QCIKQELICKWIDPEQLENPKKSCNKTFSTMHELVTHVSVEHVGGP, the abundance fitness is -0.394 ± 0.11.

Regarding QCIKQELICKWIDPEQLVNPKKSCNKTFSTMHELVTHVSVEHVGGP, the abundance fitness was -0.485 ± 0.092.

Regarding QCIKQELICKWIDPEQLSNPKKSCNKTFSTMHELVTHVSVPHVGGP, the abundance fitness was -1.04 ± 0.12.

As for QCIKQELICKWIDPEQLSNPKKSCNKTFSTMHELVTHVSVWHVGGP, the abundance fitness is -0.387 ± 0.1.

With QCIKQELICKWIDPEQLSNPKKSCNKTFSTMHELVTHVSVAHVGGP, the abundance fitness is -0.07 ± 0.089.

Consider QCIKQELICKWIDPEQLSNPKKSCTKTFSTMHELVTHVSVEHVGGP, for which the abundance fitness is 0.072 ± 0.1.

Take QCIKQELICKWIDPEQLSNPKKSCNKTFSTMLELVTHVSVEHVGGP: the abundance fitness is -0.471 ± 0.089.

On to QCIKQELICKWIDPEQLSNPKKSCNKTFSTMKELVTHVSVEHVGGP, for which the abundance fitness was -0.011 ± 0.11.

In the case of QCIKQYLICKWIDPEQLSNPKKSCNKTFSTMHELVTHVSVEHVGGP, the abundance fitness is -0.653 ± 0.26.

On to QCIKQLLICKWIDPEQLSNPKKSCNKTFSTMHELVTHVSVEHVGGP, for which the abundance fitness was -0.974 ± 0.31.

As for QCIKQELICKWIDPEQLSNIKKSCNKTFSTMHELVTHVSVEHVGGP, the abundance fitness is -0.498 ± 0.13.

For the variant QCIKQELICKWIDPEQLSNMKKSCNKTFSTMHELVTHVSVEHVGGP, the abundance fitness was -0.076 ± 0.11.

Regarding QCIKQELICKWIDPEQLSNNKKSCNKTFSTMHELVTHVSVEHVGGP, the abundance fitness is -0.121 ± 0.12.

Turning to QCIKQELICKWIDPEQESNPKKSCNKTFSTMHELVTHVSVEHVGGP, the abundance fitness worked out at 0.306 ± 0.093.

Take QCIKQELICKWIDPEQRSNPKKSCNKTFSTMHELVTHVSVEHVGGP: the abundance fitness is -0.304 ± 0.086.

Turning to QCIKQELICKWIDPEQNSNPKKSCNKTFSTMHELVTHVSVEHVGGP, the abundance fitness was 0.124 ± 0.13.
